These results are taken from PMC3642234 (Biochimica et biophysica acta, 2013).

Experiment [1] concerns the target recombinant human pancreatic triglyceride lipase (human) (UniProt P16233). Put plainly: co-sedimentation.
Experiment [2] addresses T1, recombinant human pancreatic triglyceride lipase (human, UniProt P16233 17-465).
T1 sequence: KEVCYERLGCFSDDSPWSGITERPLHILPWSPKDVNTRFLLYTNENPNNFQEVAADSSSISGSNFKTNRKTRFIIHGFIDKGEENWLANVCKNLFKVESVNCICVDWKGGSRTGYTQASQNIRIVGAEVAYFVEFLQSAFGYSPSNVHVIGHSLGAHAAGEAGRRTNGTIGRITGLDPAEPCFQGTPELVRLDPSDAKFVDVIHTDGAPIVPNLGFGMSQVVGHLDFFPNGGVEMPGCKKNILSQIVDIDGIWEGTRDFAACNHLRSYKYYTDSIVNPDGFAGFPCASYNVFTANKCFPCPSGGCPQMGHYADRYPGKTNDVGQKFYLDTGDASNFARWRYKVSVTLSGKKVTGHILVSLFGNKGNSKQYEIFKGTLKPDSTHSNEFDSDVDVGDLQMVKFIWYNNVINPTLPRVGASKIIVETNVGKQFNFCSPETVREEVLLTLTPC
Nature of the experiment: co-sedimentation.

On to F84A human colipase (natural protein), for which the apparent Kd (colipase at half-maximal absorption of PTL to tributyrin emulsion) in experiment [1] amounted to 108 nM.

As for I79A human colipase (natural protein), in experiment [1], the apparent Kd (colipase at half-maximal absorption of PTL to tributyrin emulsion) turned out to be 36 nM.

As for L16A human colipase (natural protein), the apparent Kd (colipase at half-maximal absorption of PTL to tributyrin emulsion) in experiment [1] stood at 25.7 nM.

Regarding Y55A human colipase (natural protein), the apparent Kd (colipase at half-maximal absorption of PTL to tributyrin emulsion) in experiment [1] is 78.6 nM.

B1: wild-type human colipase (natural protein, UniProt P04118 18-112, looked up)
chain: APGPRGIIINLENGELCMNSAQCKSNCCQHSSALGLARCTSMASENSECSVKTLYGIYYKCPCERGLTCEGDKTIVGSITNTNFGICHDAGRSKQ
As for B1, the “apparent Kd (colipase at half-maximal absorption of PTL to tributyrin emulsion)” value in experiment [2] is 22.8 nM.
